Experiments:
[1] = biological target: T1, human B7-H3 expressed by Mile Sven 1 cells stably transfected to express human B7-H3 (MS1-B7-H3) (human, UniProt Q5ZPR3 29-534); assay: flow cytometry titration of purified His6-tagged Gp2 on MS1-B7-H3 cells, anti-His6 FITC, 1:1 model
T1 construct: whole, on cells; In the FACS sorts it was used as detergent solubilized, non-specifically biotinylated MS1-B7-H3 cell lysate; also called CD276; MS1-B7-H3 cells
T1 sequence (looked up): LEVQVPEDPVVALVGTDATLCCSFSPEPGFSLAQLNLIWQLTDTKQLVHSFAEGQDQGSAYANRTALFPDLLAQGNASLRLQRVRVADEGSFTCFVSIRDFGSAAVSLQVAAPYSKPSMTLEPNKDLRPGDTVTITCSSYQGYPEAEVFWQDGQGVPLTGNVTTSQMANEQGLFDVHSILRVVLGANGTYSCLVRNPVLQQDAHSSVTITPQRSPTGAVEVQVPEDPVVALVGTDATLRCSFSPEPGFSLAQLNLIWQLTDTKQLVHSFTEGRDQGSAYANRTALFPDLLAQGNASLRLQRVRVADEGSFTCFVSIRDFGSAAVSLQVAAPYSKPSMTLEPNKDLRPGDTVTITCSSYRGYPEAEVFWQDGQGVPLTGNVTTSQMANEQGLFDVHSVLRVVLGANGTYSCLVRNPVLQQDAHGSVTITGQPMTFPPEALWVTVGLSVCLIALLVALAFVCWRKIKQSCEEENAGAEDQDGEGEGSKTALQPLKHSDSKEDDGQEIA

[2] = biological target: T1, human B7-H3 expressed by Mile Sven 1 …; assay: flow cytometry titration of purified His6-tagged fusion on MS1-B7-H3 cells, anti-His6 FITC, 1:1 model

Binder | Kd [1] | Kd [2]
Gp2 1.4.3 (designed binder, Purified from E. coli (pET-24b, NheI/BamHI cloning)) KFWATVQHVYSDFGFEVPVYAATLDEALQLAEVRYANSIFMVTRVRPHHHHHH | 3.4 nM | –
Gp2 1.4.4 (designed binder, Purified from E. coli (pET-24b, NheI/BamHI cloning)) KFWATVQHVYSDFGFEAPVYAATLDEALQLAEVQYANSIFTVTRVRPHHHHHH | 1 nM | –
Gp21.4.4-L15-SrtA (designed binder, range 60-206; also called Gp2-L15-SrtA fusion; Gp2 fusion construct) KFWATVQHVYSDFGFEAPVYAATLDEALQLAEVQYANSIFTVTRVRPGSGGGSGGGKGGGGTQAKPQIPKDKSKVAGYIEIPDADIKEPVYPGPATPEQLNRGVSFAEENESLDDQNISIAGHTFIDRPNYQFTNLKAAKKGSMVYFKVGNETRKYKMTSIRDVKPTDVGVLDEQKGKDKQLTLITCDDYNEKTGVWEKRKIFVATEVKHHHHHH | – | 1.8 nM
